Measured values reported in patent US20100021899 (NATIONAL UNIVERSITY CORPORATION TOKYO UNIVERSITY OF …, published 2010).

Target: BSA (bovine serum albumin) (Bos taurus, UniProt P02769 P02769:25-607)
Experiment: ELONA; plate assay on immobilized CaDNA-3-11T; no concentration-dependent signal with BSA; PBS-T, room temperature
Conditions: structure-switching stem-loop

Chain of BSA (bovine serum albumin) (P02769 25-607, one chain of several): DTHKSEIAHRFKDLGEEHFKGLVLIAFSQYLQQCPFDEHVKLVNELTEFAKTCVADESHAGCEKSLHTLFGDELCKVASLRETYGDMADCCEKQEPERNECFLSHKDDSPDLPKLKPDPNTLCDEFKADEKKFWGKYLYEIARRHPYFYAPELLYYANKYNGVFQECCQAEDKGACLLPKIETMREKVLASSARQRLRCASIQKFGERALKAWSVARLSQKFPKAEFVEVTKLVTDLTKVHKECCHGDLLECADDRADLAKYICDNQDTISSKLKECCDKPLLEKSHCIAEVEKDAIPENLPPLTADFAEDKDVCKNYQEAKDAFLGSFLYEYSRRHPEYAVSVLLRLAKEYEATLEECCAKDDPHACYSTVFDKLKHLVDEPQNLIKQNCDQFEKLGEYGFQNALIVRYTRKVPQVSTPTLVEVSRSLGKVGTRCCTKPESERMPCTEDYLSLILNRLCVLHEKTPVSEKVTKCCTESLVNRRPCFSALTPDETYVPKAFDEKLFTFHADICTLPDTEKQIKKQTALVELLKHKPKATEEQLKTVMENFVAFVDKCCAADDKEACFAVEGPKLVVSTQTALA

B1: CaAp-3 (ssDNA)
DNA: GTTCGGCACTTGGGCCCTTTTCTGTGTCTTTCTGTGCCCTTAGATAGTATGTGCAATCA
B1: no binding.
